# Data reported in patent publication US20040161756A1, “Substrate linked directed evolution (slide)” (priority 2000, published 2004).
# B1: Cre: site specific recombinase that recognises the 34 bp loxP sequence; wild type starting protein (protein, UniProt P06956 1-343, looked up)
# Recombinase cre: MSNLLTVHQNLPALPVDATSDEVRKNLMDMFRDRQAFSEHTWKMLLSVCRSWAAWCKLNNRKWFPAEPEDVRDYLLYLQARGLAVKTIQQHLGQLNMLHRRSGLPRPSDSNAVSLVMRRIRKENVDAGERAKQALAFERTDFDQVRSLMENSDRCQDIRNLAFLGIAYNTLLRIAEIARIRVKDISRTDGGRMLIHIGRTKTLVSTAGVEKALSLGVTKLVERWISVSGVADDPNNYLFCRVRKNGVAAPSATSQLSTRALEGIFEATHRLIYGAKDDSGQRYLAWSGHSARVGAARDMARAGVSIPEIMQAGGWTNVNIVMNYIRNLDSETGAMVRLLEDGD
# Experiments:
# [1] = system: loxP sites; assay: Recombination of pEVO-loxP^2 excision substrate in E. coli; format: cell-based; conditions: expressed from the arabinose promoter, even at very low expression levels
# Text: (§1) Evolution vectors: The pEVO vector series is based on the plasmid pBAD-33 (Guzman et al., J Bacteriol 177, 4121-30 (1995)). pEVO-loxP^2, pEVO-3, pEVO-6 and pEVO-10 are identical except for the recognition target sites for the recombinase (see also FIG. 3). pEVO-loxP^2 contains two tandemly repeated loxP sites as they exist in the bacteriophage P1, spaced by 690 bp. pEVO-3, contains two recognition target sites which differ in 3 nucleotides per halfsite from a loxP site. The spacer in pEVO-3 is identical to the one found in loxP sites from bacteriophage P1. pEVO-6 recognition target sites (loxH) have the spacer sequence altered in all eight positions in addition to the three nucleotides changes present in pEVO-3. pEVO-10 contains two loxH sites as well as two loxP sites, which are intertwined. Recombinase expression levels can be titrated by the amount of L-arabinose added to the medium.
# (§2) To test the method of the invention, Cre recombinase was first cloned into the vector pEVO-loxP^2, which contains two loxP sites, oriented as an excision substrate. […] As a first step, the three nucleotides different in the loxH halfsites were introduced (pEVO-3). […] Libraries of mutated recombinase were cloned into pEVO3 and screened at low recombinase expression levels.
# [2] = system: pSVpaH (loxH sites); assay: Recombination reporter assay in CHO cells, pSVpaH; format: cell-based, chinese hamster; conditions: co-transfection
# Text: (§3) a) Plasmids expressing the depicted recombinases from the PGK promoter were co-transfected with the recombination reporter plasmids pSVpaX (loxP sites) or pSVpaH (loxH sites) into CHO cells. Illustrations of plasmids pSVpaX, pSVpaH, and pSVpaZ is presented. White triangles depict loxH sites, grey triangles loxP sites, and black triangles FRT sites. SV40═SV40 early promoter; pac=puromycin acetytransferase.
# (§4) Cell culture: Chinese hamster ovary (CHO) cells were transfected with plasmid DNA using Lipofectamine (GibcoBRL). Crude cell extracts were prepared after 36 hours and Luciferase activity of cell extracts were determined with the Luciferase assay system from Promega. Relative β-galactosidase activities were measured with the Galacto-Light kit from Tropix. The Cre recombination reporter plasmid pSVpaX has been described earlier (Buchholz et al., Nucleic Acids Res 24, 4256-62 (1996)). pSVpaH is identical to pSVpaX except that the loxP sites were exchanged with loxH sites. […] Recombination efficiencies were calculated from measured β-galactosidase activities, corrected by transformation efficiencies assayed by Luciferase measurements.
# (§5) The recombination properties of Fre1 and Fre3 were evaluated in mammalian cells, by co-transfecting chinese hamster ovary (CHO) cells with reporter and recombinase expression plasmids (FIG. 6a). […]
# [3] = system: recognition target sites which differ in 3 nucleotides per halfsite from a loxP site; assay: Recombination of pEVO-3 in E. coli; format: cell-based
# Text: as §1, §2
# [4] = system: loxH sites; assay: Recombination of loxH sites in E. coli (initial experiments and pEVO-6 vector, plasmid gel); format: cell-based
# Text: as §1
# [5] = system: pSVpaX (loxP sites); assay: Recombination reporter assay in CHO cells, pSVpaX; format: cell-based, chinese hamster; conditions: co-transfection, within 36 hours, from β-galactosidase activities
# Text: as §3, §4, §5
molecule,measurement,setting,value
B1,recombination of plasmid pEVO-loxP^2,[1],efficiently recombined
same,recombination of pSVpaH,[2],little recombination
same,recombination of pEVO-3,[3]; higher expression levels,recombination was observed
same,recombination of pEVO-3,[3]; low expression levels,did not recombine
same,recombination of pEVO-6 (loxH sites),[4]; even when induced with arabinose,no recombination
same,recombination of loxH sites,[4]; initial recombination experiments in E. coli,does not recombine this site at measurable frequency
same,reporter pSVpaX recombined,[5],approximately 75%
